The source of these data is article PMC11826091.

Data set [1] has as its system T1, MtvA (Pseudomonas aeruginosa PAD8 (plasmid pPAD8)), ORF:f8ca6192.
T1 sequence: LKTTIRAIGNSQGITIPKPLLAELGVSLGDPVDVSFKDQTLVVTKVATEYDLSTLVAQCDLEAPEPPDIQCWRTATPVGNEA
The data set can be described thus: EMSA. As to conditions: pH 8.0, 25 min at room temperature.

Data set [2] concerns MtvA;MtvT (Pseudomonas aeruginosa PAD8 (plasmid pPAD8);Pseudomonas aeruginosa PAD8 (plasmid pPAD8)), ORF:f8ca6192+ORF:03226125. Briefly: EMSA. As to conditions: pH 8.0, 25 min at room temperature.

On to “CGGAAAACCTTAGACCCACTGAAGACCCGGCGTTCGCCGGGTTTTTTGTGTCTGCTCTTGTAAGCATTAACTTACACGGCGTGTGAGCCTAAGTAGATAAATGCCCGGGAGGTTTGCCAAAAACGCTCGGTGAATTTAAGTAACTTATTGAAATTAAAGGAATATATTTTTCTAAAATGGCTGCCGAAGAAGCTTCGCTGGGTTTTCTGGCAGGTTGCGGGAGCACTGGGAATCGCTAATATCACTCCTG (double strand) [P-rsmZ]”, for which the binding result in data set [1] and in data set [2] was “binds” in each case.
On to “GCCGTCTCCGCGCGGGAGGAAAAGGCCACAGCGATGTGGCTTTTTTCTTAAAAGAAAAGTCTCTCAGTGACAAAAGCGATGCATAGCCCGGTGCTAGCATGCGCTGAGCTTTAGGAGGCGCCCCC (double strand) [P-exsC]”, for which the binding result in data set [1] and in data set [2] was “no binding” in each case.
For the sequence “GCTGGGAAGGCTCGCGATGATGAGGGGACTGGCCACTGTAGCGGGCCCGGCGCAGATCATCTTGACGCACGGCAAGCTCCCGGCGGCTGGGTGTTGCCGTCGGTCCGGCGAGCGGAACTATTACAGCGTGTAAGCCAAGGCTTACAAACGGCGGTGGTTTTGGCTGCTTTCTCCCCCTCGCAGAGATGCGTAATCTTCAAACCGTCAGGACATTGCGCAGG (double strand) [P-rsmY]”, the binding entry in data set [1] and in data set [2] was “binds” in each case.
Regarding “GTACGATCATCTTCACTTCCTCCAAATAGGAAGCTGAAGAATTTATGCAAATTTCATAATTTTATAACTAGCAAATGAGATAGATTTCGGTGAACCCGGACCCTTGCTAGGCTCGAAGAAACGTCCGAAAAGATCAGAGCA (double strand) [P-lasI]”, the binding result in data set [1] and in data set [2] was “no binding” each time.
On to “TATGGATCCCGTATCTGCTCGGTTGGTTGATGGACAAAGCGCTTATCAAAAGGAAAACAACGCTTTGGCGCACGACTATACAGCAACGAAAGTCGAACGATAAGGCAATGATAGTCAGAAGTGACCCACCACTCAACACCAACCCACGCCCATATAGGTCTACGGTGACCTAAAACCTCGCTCGCCCTCCAAATAGGTCACCTGTGACCCTCGAGTAA (double strand) [P-dotD]”, for which the binding entry in data set [1] and in data set [2] was “binds” in each case.
As for “TTACTCGAGAAGTTTGGAATAACCAGAGATATGCTCGTCAACAACGAATGTTTGAACATATTTATCGGAACTTATTACATTCAGCGTAGCGTGCTGGGGAGTGATGATTTTTGGAAGGGCGTTGGTAATTACCACTCTCGCACGCCCGACAAAAACTACCGGTACAAACATCGTGTGTGGAACAGTCTCAAAGAAGTCCGGGGGCAGCAGGATCCATA (double strand) [P-icmP]”, the binding result in data set [1] and in data set [2] was “binds” throughout.
For the sequence “TTACTCGAGTGATGGCGATCGCCGCCGACGATGCTTCGTTTGATCACAGCTGCGTGGTCAACTTCAAATCGGCCGCCTGAGGGCGGCCCTACCCATAGATCCTGATTCCTCAACAAGAAAAAGCGACGTGTCCATTCGTTGACACTAAAGGTATTTTTGCGTATTTTTCGACATTATCATCTAATGAAAGTCGTTGGGGTTTGTTCGGTGGATCCATA (double strand) [P-icmL]”, the binding entry in data set [1] and in data set [2] was “binds” in each case.
